Reference: patent publication US10494417B2, “Peptide inhibitors of BCR-ABL oligomerization” (University of Utah Research Foundation, priority 2014, dated 2019)
Changes are numbered by the printed parent chain. Names and notes keep the numbering of the source. “Also recorded” adds a separate entry of the source.

How the values were obtained:
[1] = biological target: T1, isolated CC domain from Bcr-Abl (Homo sapiens, UniProt P11274); test: Mammalian two-hybrid assay of coiled-coil dimerization; type: cell-based; details: isolated CC domain from Bcr-Abl
T1 construct: using the isolated CC domain from Bcr-Abl instead of the full-length protein; expressed in transfected cells
T1 sequence (P11274 1-72): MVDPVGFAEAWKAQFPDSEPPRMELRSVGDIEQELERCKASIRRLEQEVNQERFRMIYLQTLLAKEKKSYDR
Protocol: (§1) As mentioned above, the design process of CC^mut3 involved favoring hetero-dimerization with Bcr-Abl while avoiding homo-dimerization with another CC^mut3 molecule. Thus, a mammalian two-hybrid assay was performed to measure the likelihood of each scenario, using the isolated CC domain from Bcr-Abl instead of the full-length protein (for ease of use).

[2] = biological target: T2, isolated CC domain from Bcr-Abl (Homo sapiens, UniProt P11274, C38A/E48R/K39E/L45D/Q60E/S41R); test: as above; type: cell-based; details: CC^mut3 with CC^mut3
T2 construct: using the isolated CC domain from Bcr-Abl instead of the full-length protein; expressed in transfected cells
T2 sequence (P11274 1-72 C38A/K39E/S41R/L45D/E48R/Q60E): T1 sequence (P11274 1-72) with C38A, K39E, S41R, L45D, E48R, Q60E
Protocol: as §1

[3] = system: Ba/F3 cells expressing BCR-ABL1T315I; test: Proliferation of transfected Ba/F3 BCR-ABL1 T315I cells (MTS assay); type: cell-based, mouse; details: CCmut3 vs EV; for proliferation, in words: MTS assay at 72 and 96 h
Protocol: Stable recombinant Ba/F3 cells transduced with wild type p210 BCR-ABL1 (Daley, G. Q., et al. (1991) Proc. Natl. Acad. Sci. U.S.A. 88, 11335-11338), the kinase domain mutants p210^T315I p210^[…], or the compound mutant p210^E255V/T315I were as previously described (La Rosee, P., et al. (2002) Cancer Res. 62, 7149-7153; O'Hare, T., et al. (2004) Blood 104, 2532-2539). These cells were cultured in RPMI with 10% FBS, 1% penicillin, streptomycin, glutamine, and 0.1% gentamycin (RPMI1640). Additionally 0.1% MycoZap™ (Lonza Bio, Basel, Switzerland) was added to prevent mycoplasma contamination. The non-transduced parental Ba/F3 cell line was grown in RPMI1640 supplemented with 20% WEHI-3B conditioned medium as a source of murine IL-3 (Dexter, T. M., et al. (1980) J. Exp. Med. 152, 1036-1047). Ba/F3 cells were transfected with plasmid DNA using the Amaxa nucleofection system (Lonza Bio), following the manufacturer's instructions. Cells were sorted on a BD FACSAria cytometer (BD Biosciences, San Jose, Calif.) for double-positive cells expressing mCherry and GFP then returned to RPMI1640 for subsequent experiments.
(§2) Cell proliferation was assessed using the CellTiter 96® AQueous One Solution Cell Proliferation Assay (MTS assay, Promega) according to manufacturer instructions. Briefly, 5,000 viable cells were added to a single well in 96-well plate in 100 μL RPMI1640. Three independent samples were seeded in duplicate for each time point. […] In some experiments, cell proliferation was assessed using a Neubauer chamber and trypan blue dye exclusion.
Stable Ba/F3 cells transduced with native (p210) BCR-ABL1, the kinase domain mutants BCR-ABL1T315I, BCR-ABL1E255V, or the compound mutant BCR-ABL1E255V/T315I were cultured. […]
Cell proliferation was assessed using a […] viability assay (MTS assay) utilizing CellTiter 96® AQueous One Solution Cell Proliferation Assay (Promega) according to manufacturer instructions. […] Cell growth was assessed by MTS assay at 72 and 96 h. […] In patient sample experiments, cell proliferation was assessed by trypan blue exclusion.

[4] = system: Ba/F3 cells expressing native BCR-ABL1 (Ba/F3-p210); test: Colony forming assay of transfected Ba/F3-p210 cells; type: cell-based, mouse; details: CCmut3 alone vs EV or EGFP control
Protocol: Briefly, K562 or Ba/F3-p210 cells were transfected according to the protocol above. One day following transfection, 1.0×10^6 cells per transfection group were collected and re-suspended in sterile PBS. […] Finally, 1.1 mL of cell/methylcellulose mixture was seeded in duplicate and allowed to grow at 37° C. and 5% CO2 for 7 days. Colony formation was assessed by counting colonies in two 200 μm2 areas on the plate. Experiments were performed once in duplicate (n=1 in duplicate). All kit reagents and media were purchased from Stem Cell Technologies (Vancouver, BC, Canada).

[5] = system: CML CD34+ cells expressing BCR-ABL1T315I; test: Liquid culture of primary T315I CML cells; type: cell-based, human; details: CC^mut3 or increasing concentrations of ponatinib (FIG. 28C)
Protocol: as §2

[6] = system: K562 cells; test: 7-AAD and Annexin V staining of protein-treated K562 cells; type: cell-based, human; details: proteins 30 μM, imatinib 2.5 μM; 48 and 72 hours after treatment
Protocol: 0.5 μL of 1 mM 7-AAD (Invitrogen) was added to each sample, followed by a 45 minute incubation on ice. […] Analysis was performed using the FACS Canto-II (BD BioSciences, University of Utah Core Facility) with FACS Diva software. 7-AAD and APC were excited at 488 and 635 nm wavelengths, and emissions were detected at 660 nm. Percentage of apoptosis/necrosis was calculated by the percentage of cells that stained positive for 7-AAD and/or APC. Independent treatments were tested three times (n=3).

B1: CCmut3: modified Bcr-Abl coiled-coil domain (residues 1-72) with mutations C38A, K39E, S41R, L45D, E48R, Q60E (protein)
chain: T1 sequence (P11274 1-72) with C38A, K39E, S41R, L45D, E48R, Q60E
With B1 the “hetero-dimerization with BCR-ABL” value [1] was “favors hetero-dimerization; also recorded: strongly favors hetero-dimerization”, the homo-oligomerization [2] was “strongly disfavoring homo-oligomerization” and the reduction of proliferation ([3]; 96 h, MTS assay) was “approximately 3 fold”. The “proliferation, in words” value [3] was “significant reduction of proliferative capacity; also recorded: lesser, yet significant difference was noted at the 72 h time point”, the “proliferation, in words” value ([3]; listed as CC^mut3) was “significant reduction” and the “colony formation, in words” value [4] was “greatly reduced; also recorded: nearly eliminated colony forming ability”. The “colony formation, in words” value ([4]; listed as CC^mut3) was “greatly reduced; also recorded: nearly eliminated CFCs; also recorded: significantly lower than the EGFP control”, the “effect in liquid culture” value [5] was “no effect” and the “induction of apoptosis/necrosis (7-AAD and/or Annexin V positive cells)” value [6] was “did not induce apoptosis”.
